This is an account of results in patent US20250320281A1.

Common to all, as to test: cell-based or functional assay
Assay [1] deals with HIV-1 MGRM-C-027 Env (pseudovirus, clade C) (HIV-1).
Assay [2] concerns the target HIV-1 envelope glycoprotein (Env) of isolate 94KE105, listed under clade A (HIV-1).
Assay [3] has as its target HIV-1 Env of isolate 98CN009 (CRF07 BC) (HIV-1 isolate 98CN009).
Assay [4] addresses HIV-1 94UG103 envelope glycoprotein (Env) on pseudovirus (HIV-1).
Assay [5] deals with HIV-1 envelope glycoprotein (Env) of isolate MGRM-A-007, clade A (HIV-1).
Assay [6] has as its target HIV-1 93IN905 Env (pseudovirus, clade C) (HIV-1).
Assay [7] deals with HIV-1 Env of isolate MGRM-D-016 (clade D pseudovirus) (HIV-1).
The target of assay [8] is HIV-1 Env of isolate 98CN009 (HIV-1).
Assay [9] addresses HIV-1 envelope glycoprotein (Env) of isolate MGRM-A-014, clade A (HIV-1).
For assay [10], the target named is HIV-1 Env of pseudovirus MGRM-F1-010 (HIV-1).
Assay [11] has as its target HIV-1 Env of pseudovirus MGRM-AG-012 (clade CRF_AG) (HIV-1).
The target of assay [12] is HIV-1 Env of isolate SC422661.8 (Acute), clade B, on pseudovirus (HIV-1).
Assay [13] deals with HIV-1 envelope glycoprotein (Env) of isolate MGRM-A-012, clade A (HIV-1).
Assay [14] addresses HIV-1 Env of isolate MGRM-D-018 (clade D), on pseudovirus (HIV-1).
In assay [15] the target is HIV-1 Env of pseudovirus MGRM-Chronic-B-012 (HIV-1).
The target in assay [16] is HIV-1 Env of pseudovirus MGRM-G-024 (HIV-1, clade G isolate MGRM-G-024).
In assay [17] the target is HIV-1 Env of isolate MGRM-D-019 (clade D pseudovirus) (HIV-1).
Assay [18] has as its target HIV-1 Env of isolate MGRM-D-008 (clade D pseudovirus) (HIV-1).
The target of assay [19] is HIV-1 Env of pseudovirus MGRM-G-011 (HIV-1, clade G isolate MGRM-G-011).
Assay [20] concerns the target HIV-1 Env of isolate MGRM-G-013 (HIV-1).
Assay [21] has as its target HIV-1 Env of isolate MGRM-AE-001 (subtype AE) (HIV-1).
The target in assay [22] is HIV-1 Env of isolate MGRM-Chronic-B-003 (subtype B) (HIV-1).
Assay [23] deals with HIV-1 Env of isolate MGRM-C-002 (subtype C) (HIV-1).
Assay [24] has as its target HIV-1 Env of isolate 98IN022 (subtype C) (HIV-1).
The target of assay [25] is HIV-1 Env of isolate MG RM-D-018 (HIV-1).
The target in assay [26] is HIV-1 Env of isolate 92UG037 (HIV-1).
For assay [27], the target named is HIV-1 envelope glycoprotein (Env) of isolate MGRM-C-012 (HIV-1).
For assay [28], the target named is HIV-1 envelope glycoprotein (Env) of isolate MGRM-C-017 (HIV-1).
For assay [29], the target named is HIV-1 Env of isolate JRFL (subtype B) (HIV-1).
The target in assay [30] is HIV-1 Env of isolate MGRM-A-001 (HIV-1).
For assay [31], the target named is HIV-1 Env of isolate VLGCB3 (subtype B) (HIV-1).
Assay [32] concerns the target HIV-1 Env of isolate MGRM-Chronic-B-004 (subtype B) (HIV-1).
Assay [33] addresses HIV-1 Env of isolate MGRM-A-003 (HIV-1).
Assay [34] concerns the target HIV-1 Env of isolate MGRM-AG-005 (clade AG), on pseudovirus (HIV-1).

5345_I01 (PGT-137) (antibody), sequence (VH): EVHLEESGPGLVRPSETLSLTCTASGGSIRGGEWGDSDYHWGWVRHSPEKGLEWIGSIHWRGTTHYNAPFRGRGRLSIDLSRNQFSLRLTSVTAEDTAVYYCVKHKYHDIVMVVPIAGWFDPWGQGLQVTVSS
5345_I01 (PGT-137) (antibody), sequence (VL): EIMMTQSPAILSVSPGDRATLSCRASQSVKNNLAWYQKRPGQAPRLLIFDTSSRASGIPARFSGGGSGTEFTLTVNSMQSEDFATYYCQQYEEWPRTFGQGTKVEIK
5329_C19 (PGT-136) (antibody), sequence (VH): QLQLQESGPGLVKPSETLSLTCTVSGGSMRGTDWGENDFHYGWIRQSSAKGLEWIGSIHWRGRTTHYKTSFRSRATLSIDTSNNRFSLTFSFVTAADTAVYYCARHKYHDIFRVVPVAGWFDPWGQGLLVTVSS
5329_C19 (PGT-136) (antibody), sequence (VL): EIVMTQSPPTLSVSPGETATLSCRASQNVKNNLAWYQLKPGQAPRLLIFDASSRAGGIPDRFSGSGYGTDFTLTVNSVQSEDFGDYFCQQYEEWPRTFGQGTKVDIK
4995_E20 (PGT-142) (antibody), sequence (VH): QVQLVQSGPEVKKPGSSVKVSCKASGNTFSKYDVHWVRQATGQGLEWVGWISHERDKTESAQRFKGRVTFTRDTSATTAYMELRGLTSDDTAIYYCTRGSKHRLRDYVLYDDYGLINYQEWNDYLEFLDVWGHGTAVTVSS
4995_E20 (PGT-142) (antibody), sequence (VL): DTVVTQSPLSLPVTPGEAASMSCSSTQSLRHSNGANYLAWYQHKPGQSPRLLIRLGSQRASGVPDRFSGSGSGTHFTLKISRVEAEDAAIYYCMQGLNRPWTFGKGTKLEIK
4970_K22 (PGT-144) (antibody), sequence (VH): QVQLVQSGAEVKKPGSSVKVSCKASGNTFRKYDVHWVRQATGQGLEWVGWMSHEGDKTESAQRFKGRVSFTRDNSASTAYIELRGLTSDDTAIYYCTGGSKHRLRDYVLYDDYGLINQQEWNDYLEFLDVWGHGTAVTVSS
4970_K22 (PGT-144) (antibody), sequence (VL): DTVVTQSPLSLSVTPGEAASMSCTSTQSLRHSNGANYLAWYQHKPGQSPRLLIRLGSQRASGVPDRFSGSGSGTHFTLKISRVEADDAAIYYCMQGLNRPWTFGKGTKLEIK
4993_K13 (PGT-141) (antibody), sequence (VH): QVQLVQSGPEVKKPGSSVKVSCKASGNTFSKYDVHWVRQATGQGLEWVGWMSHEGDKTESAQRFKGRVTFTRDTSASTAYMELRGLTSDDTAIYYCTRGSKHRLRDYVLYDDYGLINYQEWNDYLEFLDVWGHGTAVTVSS
4980_N08 (PGT-143) (antibody), sequence (VH): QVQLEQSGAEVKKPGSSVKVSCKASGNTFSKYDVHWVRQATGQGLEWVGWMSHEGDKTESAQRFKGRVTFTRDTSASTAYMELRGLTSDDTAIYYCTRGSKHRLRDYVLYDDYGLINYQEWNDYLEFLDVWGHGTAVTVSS
4980_N08 (PGT-143) (antibody), sequence (VL): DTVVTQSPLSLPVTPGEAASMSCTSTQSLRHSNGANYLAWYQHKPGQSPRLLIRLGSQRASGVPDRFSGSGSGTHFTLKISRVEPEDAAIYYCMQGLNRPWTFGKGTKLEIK

In general, IC50 refers to the concentration that gives 50% inhibition. On to 1496_C09 (PG9) (TCN-109) (antibody), for which the IC50 neutralization in assay [1] came out at 2.45 µg/mL; in [6], 0.048 µg/mL. Further, the IC50 (µg/ml), pseudovirus neutralization came out at 29.6 µg/mL in [2]; 1.07 µg/mL in [3]; 0.37 µg/mL in assay [5]; 0.1 µg/mL in assay [7]; 0.62 µg/mL in assay [9]; 0.03 µg/mL in assay [10]. Besides, the IC50 (µg/ml), pseudovirus neutralization in assay [12] was 0.79 µg/mL; in [13], 11.2 µg/mL; in [15], 0.91 µg/mL; in assay [16] it was 0.07 µg/mL; in assay [17] it was 0.03 µg/mL; in assay [18], 6.86 µg/mL. Further, the IC50 (µg/ml), pseudovirus neutralization in [19] was 0.19 µg/mL. The IC50, pseudovirus neutralization was found to be 0.173 µg/mL in [4] and 0.0444 µg/mL in [14]. For the same substance, the IC50 in [8] is 0.371 µg/mL; in assay [11], 1.37 µg/mL.
As to 4970_K22 (PGT-144) (antibody), the IC50 (µg/mL), pseudovirus neutralization in [20] and in assay [21] was > 50 µg/mL each time.
4980_N08 (PGT-143) (antibody): the IC50 (µg/mL), pseudovirus neutralization in assay [20] and in [21] was > 50 µg/mL in each case.
For the substance 4993_K13 (PGT-141) (antibody), the IC50 (µg/mL), pseudovirus neutralization in assay [20] and in assay [21] was > 50 µg/mL each time.
Regarding 4995_E20 (PGT-142) (antibody), the IC50 (µg/mL), pseudovirus neutralization in assay [20] and in assay [21] was > 50 µg/mL each time.
Take 5114_A19 (PGT-128) (antibody): the IC50 neutralization was 0.007 µg/mL in assay [22]; 0.019 µg/mL in assay [23]; 0.014 µg/mL in assay [24]; 0.007 µg/mL in assay [29]; 0.012 µg/mL in assay [31]; 0.009 µg/mL in assay [32]. In addition, the IC50 (µg/mL), pseudovirus neutralization in assay [25] was 0.008 µg/mL; in assay [27], 0.058 µg/mL; in assay [8], 0.025 µg/mL; in assay [28], 1.06 µg/mL; in assay [21], 0.069 µg/mL. The IC50 in assay [26] is 0.006 µg/mL; in [30], > 50 µg/mL; in [33] it was > 50 µg/mL.
As to 5136_H01 (PGT-131) (antibody), the IC50 neutralization was > 50 µg/mL in [22]; > 50 µg/mL in [23]; > 50 µg/mL in assay [24]; 0.454 µg/mL in assay [29]; > 50 µg/mL in assay [31]; 0.04 µg/mL in assay [32]. The IC50 (µg/mL), pseudovirus neutralization in assay [25] is 0.148 µg/mL; in assay [27] it was > 50 µg/mL; in assay [8], 4.05 µg/mL; in assay [28] it was > 50 µg/mL; in assay [21] it was 4.8 µg/mL. Further, the IC50 was 0.048 µg/mL in [26], > 50 µg/mL in assay [30] and > 50 µg/mL in assay [33].
Regarding 5147_N06 (PGT-130) (antibody), the IC50 neutralization is 0.0052 µg/mL in assay [1]; > 50 µg/mL in assay [22]; > 50 µg/mL in [23]; > 50 µg/mL in [24]; 0.0182 µg/mL in assay [6]; 0.046 µg/mL in assay [29]. Also, the IC50 neutralization in assay [31] worked out at 4.6 µg/mL; in assay [32] it was 0.01 µg/mL. Moreover, the IC50 (µg/mL), pseudovirus neutralization in [25] was 0.049 µg/mL; in assay [27], > 50 µg/mL; in [8], 0.136 µg/mL; in [28], > 50 µg/mL; in assay [21], 1 µg/mL. Further, the IC50 in assay [26] is 0.061 µg/mL; in assay [30], > 50 µg/mL; in [33], > 50 µg/mL. Besides, the results for the IC50, pseudovirus neutralization in assay [34] and in assay [14] were 0.947 µg/mL and 0.0378 µg/mL, respectively.
As for 5329_C19 (PGT-136) (antibody), the IC50 neutralization was > 10 µg/mL in assay [1]; > 50 µg/mL in assay [22]; > 50 µg/mL in assay [23]; 13.6 µg/mL in assay [24]; 0.0135 µg/mL in [6]; > 50 µg/mL in assay [29]. Also, the IC50 neutralization in assay [31] and in assay [32] was > 50 µg/mL in each case. Further, the IC50 (µg/mL), pseudovirus neutralization is > 50 µg/mL in assay [25]; > 50 µg/mL in [27]; 0.428 µg/mL in [8]; > 50 µg/mL in [28]; > 50 µg/mL in assay [21]. For the same substance, the half-maximal inhibitory concentration (IC50) in assay [26], in [30] and in [33] was > 50 µg/mL each time. Moreover, the IC50, pseudovirus neutralization in [34] and in assay [14] was > 10 µg/mL throughout.
For the substance 5343_B08 (PGT-135) (antibody), the IC50 neutralization is > 10 µg/mL in assay [1]; > 50 µg/mL in assay [22]; > 50 µg/mL in [23]; 0.014 µg/mL in assay [24]; 0.0183 µg/mL in [6]; > 50 µg/mL in assay [29]. The IC50 neutralization was 0.142 µg/mL in [31] and > 50 µg/mL in [32]. Further, the IC50 (µg/mL), pseudovirus neutralization was 0.039 µg/mL in [25]; 0.017 µg/mL in assay [27]; 0.071 µg/mL in assay [8]; > 50 µg/mL in assay [28]; > 50 µg/mL in [21]. The figures for the half-maximal inhibitory concentration (IC50) in assay [26], in assay [30] and in [33] were 3.67 µg/mL, > 50 µg/mL and > 50 µg/mL, respectively. Moreover, the IC50, pseudovirus neutralization in assay [34] is > 10 µg/mL; in [14], 0.0433 µg/mL.
On to 5345_I01 (PGT-137) (antibody), for which the IC50 neutralization in assay [22] was > 50 µg/mL; in assay [23] it was 8.03 µg/mL; in assay [24], 0.408 µg/mL; in assay [29], > 50 µg/mL; in assay [31], 3.36 µg/mL; in [32], > 50 µg/mL. Also, the IC50 (µg/mL), pseudovirus neutralization in [25] is 15.1 µg/mL; in assay [27], 0.102 µg/mL; in assay [8], 5.06 µg/mL; in assay [28] it was > 50 µg/mL; in assay [21] it was > 50 µg/mL. In addition, the IC50 in assay [26], in [30] and in assay [33] was > 50 µg/mL throughout.
In turn, PGV04 (antibody) returned an IC50 (µg/mL), pseudovirus neutralization in assay [20] of 0.168 µg/mL. In assay [8], the IC50 amounted to 0.0125 µg/mL.
As to VRC01 (antibody), the IC50 in assay [25] was > 50 µg/mL. For the same substance, the values for the IC50 (µg/mL), pseudovirus neutralization in assay [20] and in assay [21] were 0.553 µg/mL and 0.167 µg/mL, respectively.
